The experiment has as its target T1, recombinant human G-CSF receptor (rhG-CSFR), biotinylated (human, UniProt Q99062 25-627, biotin (biotinylated, site not stated)).
T1 construct: human granulocyte colony-stimulating factor receptor
T1 sequence (looked up): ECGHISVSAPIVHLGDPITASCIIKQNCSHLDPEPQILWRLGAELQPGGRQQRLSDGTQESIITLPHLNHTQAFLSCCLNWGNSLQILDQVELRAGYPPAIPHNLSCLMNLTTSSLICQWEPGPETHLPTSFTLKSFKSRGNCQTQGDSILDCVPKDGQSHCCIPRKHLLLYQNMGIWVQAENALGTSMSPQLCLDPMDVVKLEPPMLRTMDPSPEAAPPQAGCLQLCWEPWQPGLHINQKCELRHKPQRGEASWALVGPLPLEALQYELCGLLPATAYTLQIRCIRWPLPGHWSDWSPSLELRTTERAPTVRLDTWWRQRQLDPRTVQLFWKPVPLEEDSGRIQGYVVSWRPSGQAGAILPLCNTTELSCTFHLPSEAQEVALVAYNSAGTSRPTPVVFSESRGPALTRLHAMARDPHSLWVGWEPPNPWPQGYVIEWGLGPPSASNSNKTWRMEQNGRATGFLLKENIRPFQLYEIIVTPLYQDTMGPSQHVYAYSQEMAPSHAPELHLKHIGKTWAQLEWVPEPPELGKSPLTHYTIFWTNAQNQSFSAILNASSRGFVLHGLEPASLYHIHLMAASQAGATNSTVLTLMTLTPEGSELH
Kind of experiment: BLI; biotinylated rhG-CSFR (15 µg/ml) on Streptavidin High Binding biosensors, Octet-QK; HMG, rhG-CSF standard or mG-CSF in solution; global fitting. To be noted: both partners purified.

B1: Human G-CSF mutant (mG-CSF) (ligand, UniProt P09919-2 31-204, looked up)
chain: APTYRASSLPQSFLLKSLEQVRKIQGDGAALQEKLCATYKLCHPEELVLLGHSLGIPWAPLSSCPSQALQLAGCLSQLHSGLFLYQGLLQALEGISPELGPTLDTLQLDVADFATTIWQQMEELGMAPALQPTQGAMPAFASAFQRRAGGVLVASHLQSFLEVSYRVLRHLAQP
notes: human granulocyte colony-stimulating factor with five substitutions; also called mutated G-CSF
Turning to B1, the dissociation constant Kd was 1.2 nM, the koff is 1.94e-05 s⁻¹ and the kon came to 16200 M⁻¹ s⁻¹.

B2: recombinant human G-CSF (rhG-CSF) standard (ligand, UniProt P09919-2 31-204, looked up)
chain: TPLGPASSLPQSFLLKCLEQVRKIQGDGAALQEKLCATYKLCHPEELVLLGHSLGIPWAPLSSCPSQALQLAGCLSQLHSGLFLYQGLLQALEGISPELGPTLDTLQLDVADFATTIWQQMEELGMAPALQPTQGAMPAFASAFQRRAGGVLVASHLQSFLEVSYRVLRHLAQP
notes: human granulocyte colony-stimulating factor, rhG-CSF standard of Amgen; Amgen's rhG-CSF is recalled to be the 174-residue mature form with an added N-terminal Met (filgrastim); also called recombinant hG-CSF standard; source: bought: Amgen, USA
Turning to B2, the Kd was found to be 1.97 nM, the koff turned out to be 2.24e-05 s⁻¹ and the kon stood at 11400 M⁻¹ s⁻¹.

Source of the values: PMC4275271, “Development and Characterization of a Novel Fusion Protein of a Mutated Granulocyte Colony-Stimulating Factor and Human Serum Albumin in Pichia pastoris” (PLoS ONE, 2014).
